Results from US20260049138A1 (Chugai, published 2026).

Target: T1, CD3ε homodimer protein (human, UniProt P07766 23-126, limits assumed)
T1 construct: also called CD3 (CD3ε)
Assay: SPR Biacore T200, CD3ε homodimer on chip;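 note: Light-chain single-residue variant antibodies injected over amine-coupled CD3ε homodimer on a CM4 chip at 25 °C, bound amount divided by that of the GLS3000-containing antibody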

T1 sequence (P07766 23-126 limits assumed): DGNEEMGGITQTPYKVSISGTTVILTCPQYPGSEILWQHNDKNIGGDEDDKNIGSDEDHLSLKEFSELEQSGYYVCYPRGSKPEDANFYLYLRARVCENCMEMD

Row | ratio of amount bound vs unaltered GLS3000 | Binder
1 | 0.23 | GLS3000 K50A one-arm antibody (antibody, human IgG1, kappa, L234A L235A, N297A, name in Kabat numbering) heavy: QVQLVESGGGVVQPGRSLRLSCAASGFTFSNAWMHWVRQAPGKGLEWVAQIKAKSNNYATYYAESVKGRFTISRDDSKNSLYLQMNSLKTEDTAVYYCRYVHYGAYYGVDAWGQGTTVTVSSASTKGPSVFPLAPSSKSTSGGTAALGCLVKDYFPEPVTVSWNSGALTSGVHTFPAVLQSSGLYSLSSVVTVPSSSLGTQTYICNVNHKPSNTKVDKKVEPKSCDKTHTCPPCPAPEAAGGPSVFLFPPKPKDTLMISRTPEVTCVVVDVSHEDPEVKFNWYVDGVEVHNAKTKPREEQYASTYRVVSVLTVLHQDWLNGKEYKCKVSNKALPAPIEKTISKAKGQPREPQVYTLPPSRCELTKNQVSLSCAVKGFYPSDIAVEWESNGQPENNYKTTPPVLDSDGSFFLVSKLTVDKSRWQQGNVFSCSVMHEALHNHYTQKSLSLSPDYKDDDDK EPKSSDKTHTCPPCPAPELLGGPSVFLFPPKPKDTLMISRTPEVTCVVVDVSHEDPEVKFNWYVDGVEVHNAKTKPREEQYNSTYRVVSVLTVLHQDWLNGKEYKCKVSNKALPAPIEKTISKAKGQPREPQVCTLPPSRDELTKNQVSLWCLVKGFYPSDIAVEWESNGQPENNYKTTPPVLDSDGSFFLYSKLTVDKSRWQQGNVFSCSVMHEALHNRYTQKSLSLSP light: DIVMTQSPLSLPVTPGEPASISCRSSQSLVHSNRNTYLHWYQQKPGQAPRLLIYAVSNRFSGVPDRFSGSGSGTDFTLKISRVEAEDVGVYYCGQGTQVPYTFGQGTKLEIKRTVAAPSVFIFPPSDEQLKSGTASVVCLLNNFYPREAKVQWKVDNALQSGNSQESVTEQDSKDSTYSLSSTLTLSKADYEKHKVYACEVTHQGLSSPVTKSFNRGEC
2 | 0.22 | GLS3000 K50D one-arm antibody (antibody, human IgG1, kappa, L234A L235A, N297A, name in Kabat numbering) heavy: QVQLVESGGGVVQPGRSLRLSCAASGFTFSNAWMHWVRQAPGKGLEWVAQIKAKSNNYATYYAESVKGRFTISRDDSKNSLYLQMNSLKTEDTAVYYCRYVHYGAYYGVDAWGQGTTVTVSSASTKGPSVFPLAPSSKSTSGGTAALGCLVKDYFPEPVTVSWNSGALTSGVHTFPAVLQSSGLYSLSSVVTVPSSSLGTQTYICNVNHKPSNTKVDKKVEPKSCDKTHTCPPCPAPEAAGGPSVFLFPPKPKDTLMISRTPEVTCVVVDVSHEDPEVKFNWYVDGVEVHNAKTKPREEQYASTYRVVSVLTVLHQDWLNGKEYKCKVSNKALPAPIEKTISKAKGQPREPQVYTLPPSRCELTKNQVSLSCAVKGFYPSDIAVEWESNGQPENNYKTTPPVLDSDGSFFLVSKLTVDKSRWQQGNVFSCSVMHEALHNHYTQKSLSLSPDYKDDDDK EPKSSDKTHTCPPCPAPELLGGPSVFLFPPKPKDTLMISRTPEVTCVVVDVSHEDPEVKFNWYVDGVEVHNAKTKPREEQYNSTYRVVSVLTVLHQDWLNGKEYKCKVSNKALPAPIEKTISKAKGQPREPQVCTLPPSRDELTKNQVSLWCLVKGFYPSDIAVEWESNGQPENNYKTTPPVLDSDGSFFLYSKLTVDKSRWQQGNVFSCSVMHEALHNRYTQKSLSLSP light: DIVMTQSPLSLPVTPGEPASISCRSSQSLVHSNRNTYLHWYQQKPGQAPRLLIYDVSNRFSGVPDRFSGSGSGTDFTLKISRVEAEDVGVYYCGQGTQVPYTFGQGTKLEIKRTVAAPSVFIFPPSDEQLKSGTASVVCLLNNFYPREAKVQWKVDNALQSGNSQESVTEQDSKDSTYSLSSTLTLSKADYEKHKVYACEVTHQGLSSPVTKSFNRGEC
3 | 0.24 | GLS3000 K50E one-arm antibody (antibody, human IgG1, kappa, L234A L235A, N297A, name in Kabat numbering) heavy: QVQLVESGGGVVQPGRSLRLSCAASGFTFSNAWMHWVRQAPGKGLEWVAQIKAKSNNYATYYAESVKGRFTISRDDSKNSLYLQMNSLKTEDTAVYYCRYVHYGAYYGVDAWGQGTTVTVSSASTKGPSVFPLAPSSKSTSGGTAALGCLVKDYFPEPVTVSWNSGALTSGVHTFPAVLQSSGLYSLSSVVTVPSSSLGTQTYICNVNHKPSNTKVDKKVEPKSCDKTHTCPPCPAPEAAGGPSVFLFPPKPKDTLMISRTPEVTCVVVDVSHEDPEVKFNWYVDGVEVHNAKTKPREEQYASTYRVVSVLTVLHQDWLNGKEYKCKVSNKALPAPIEKTISKAKGQPREPQVYTLPPSRCELTKNQVSLSCAVKGFYPSDIAVEWESNGQPENNYKTTPPVLDSDGSFFLVSKLTVDKSRWQQGNVFSCSVMHEALHNHYTQKSLSLSPDYKDDDDK EPKSSDKTHTCPPCPAPELLGGPSVFLFPPKPKDTLMISRTPEVTCVVVDVSHEDPEVKFNWYVDGVEVHNAKTKPREEQYNSTYRVVSVLTVLHQDWLNGKEYKCKVSNKALPAPIEKTISKAKGQPREPQVCTLPPSRDELTKNQVSLWCLVKGFYPSDIAVEWESNGQPENNYKTTPPVLDSDGSFFLYSKLTVDKSRWQQGNVFSCSVMHEALHNRYTQKSLSLSP light: DIVMTQSPLSLPVTPGEPASISCRSSQSLVHSNRNTYLHWYQQKPGQAPRLLIYEVSNRFSGVPDRFSGSGSGTDFTLKISRVEAEDVGVYYCGQGTQVPYTFGQGTKLEIKRTVAAPSVFIFPPSDEQLKSGTASVVCLLNNFYPREAKVQWKVDNALQSGNSQESVTEQDSKDSTYSLSSTLTLSKADYEKHKVYACEVTHQGLSSPVTKSFNRGEC
4 | 0.16 | GLS3000 K50G one-arm antibody (antibody, human IgG1, kappa, L234A L235A, N297A, name in Kabat numbering) heavy: QVQLVESGGGVVQPGRSLRLSCAASGFTFSNAWMHWVRQAPGKGLEWVAQIKAKSNNYATYYAESVKGRFTISRDDSKNSLYLQMNSLKTEDTAVYYCRYVHYGAYYGVDAWGQGTTVTVSSASTKGPSVFPLAPSSKSTSGGTAALGCLVKDYFPEPVTVSWNSGALTSGVHTFPAVLQSSGLYSLSSVVTVPSSSLGTQTYICNVNHKPSNTKVDKKVEPKSCDKTHTCPPCPAPEAAGGPSVFLFPPKPKDTLMISRTPEVTCVVVDVSHEDPEVKFNWYVDGVEVHNAKTKPREEQYASTYRVVSVLTVLHQDWLNGKEYKCKVSNKALPAPIEKTISKAKGQPREPQVYTLPPSRCELTKNQVSLSCAVKGFYPSDIAVEWESNGQPENNYKTTPPVLDSDGSFFLVSKLTVDKSRWQQGNVFSCSVMHEALHNHYTQKSLSLSPDYKDDDDK EPKSSDKTHTCPPCPAPELLGGPSVFLFPPKPKDTLMISRTPEVTCVVVDVSHEDPEVKFNWYVDGVEVHNAKTKPREEQYNSTYRVVSVLTVLHQDWLNGKEYKCKVSNKALPAPIEKTISKAKGQPREPQVCTLPPSRDELTKNQVSLWCLVKGFYPSDIAVEWESNGQPENNYKTTPPVLDSDGSFFLYSKLTVDKSRWQQGNVFSCSVMHEALHNRYTQKSLSLSP light: DIVMTQSPLSLPVTPGEPASISCRSSQSLVHSNRNTYLHWYQQKPGQAPRLLIYGVSNRFSGVPDRFSGSGSGTDFTLKISRVEAEDVGVYYCGQGTQVPYTFGQGTKLEIKRTVAAPSVFIFPPSDEQLKSGTASVVCLLNNFYPREAKVQWKVDNALQSGNSQESVTEQDSKDSTYSLSSTLTLSKADYEKHKVYACEVTHQGLSSPVTKSFNRGEC
5 | 0.24 | GLS3000 K50L one-arm antibody (antibody, human IgG1, kappa, L234A L235A, N297A, name in Kabat numbering) heavy: QVQLVESGGGVVQPGRSLRLSCAASGFTFSNAWMHWVRQAPGKGLEWVAQIKAKSNNYATYYAESVKGRFTISRDDSKNSLYLQMNSLKTEDTAVYYCRYVHYGAYYGVDAWGQGTTVTVSSASTKGPSVFPLAPSSKSTSGGTAALGCLVKDYFPEPVTVSWNSGALTSGVHTFPAVLQSSGLYSLSSVVTVPSSSLGTQTYICNVNHKPSNTKVDKKVEPKSCDKTHTCPPCPAPEAAGGPSVFLFPPKPKDTLMISRTPEVTCVVVDVSHEDPEVKFNWYVDGVEVHNAKTKPREEQYASTYRVVSVLTVLHQDWLNGKEYKCKVSNKALPAPIEKTISKAKGQPREPQVYTLPPSRCELTKNQVSLSCAVKGFYPSDIAVEWESNGQPENNYKTTPPVLDSDGSFFLVSKLTVDKSRWQQGNVFSCSVMHEALHNHYTQKSLSLSPDYKDDDDK EPKSSDKTHTCPPCPAPELLGGPSVFLFPPKPKDTLMISRTPEVTCVVVDVSHEDPEVKFNWYVDGVEVHNAKTKPREEQYNSTYRVVSVLTVLHQDWLNGKEYKCKVSNKALPAPIEKTISKAKGQPREPQVCTLPPSRDELTKNQVSLWCLVKGFYPSDIAVEWESNGQPENNYKTTPPVLDSDGSFFLYSKLTVDKSRWQQGNVFSCSVMHEALHNRYTQKSLSLSP light: DIVMTQSPLSLPVTPGEPASISCRSSQSLVHSNRNTYLHWYQQKPGQAPRLLIYLVSNRFSGVPDRFSGSGSGTDFTLKISRVEAEDVGVYYCGQGTQVPYTFGQGTKLEIKRTVAAPSVFIFPPSDEQLKSGTASVVCLLNNFYPREAKVQWKVDNALQSGNSQESVTEQDSKDSTYSLSSTLTLSKADYEKHKVYACEVTHQGLSSPVTKSFNRGEC
6 | 0.3 | GLS3000 K50P one-arm antibody (antibody, human IgG1, kappa, L234A L235A, N297A, name in Kabat numbering) heavy: QVQLVESGGGVVQPGRSLRLSCAASGFTFSNAWMHWVRQAPGKGLEWVAQIKAKSNNYATYYAESVKGRFTISRDDSKNSLYLQMNSLKTEDTAVYYCRYVHYGAYYGVDAWGQGTTVTVSSASTKGPSVFPLAPSSKSTSGGTAALGCLVKDYFPEPVTVSWNSGALTSGVHTFPAVLQSSGLYSLSSVVTVPSSSLGTQTYICNVNHKPSNTKVDKKVEPKSCDKTHTCPPCPAPEAAGGPSVFLFPPKPKDTLMISRTPEVTCVVVDVSHEDPEVKFNWYVDGVEVHNAKTKPREEQYASTYRVVSVLTVLHQDWLNGKEYKCKVSNKALPAPIEKTISKAKGQPREPQVYTLPPSRCELTKNQVSLSCAVKGFYPSDIAVEWESNGQPENNYKTTPPVLDSDGSFFLVSKLTVDKSRWQQGNVFSCSVMHEALHNHYTQKSLSLSPDYKDDDDK EPKSSDKTHTCPPCPAPELLGGPSVFLFPPKPKDTLMISRTPEVTCVVVDVSHEDPEVKFNWYVDGVEVHNAKTKPREEQYNSTYRVVSVLTVLHQDWLNGKEYKCKVSNKALPAPIEKTISKAKGQPREPQVCTLPPSRDELTKNQVSLWCLVKGFYPSDIAVEWESNGQPENNYKTTPPVLDSDGSFFLYSKLTVDKSRWQQGNVFSCSVMHEALHNRYTQKSLSLSP light: DIVMTQSPLSLPVTPGEPASISCRSSQSLVHSNRNTYLHWYQQKPGQAPRLLIYPVSNRFSGVPDRFSGSGSGTDFTLKISRVEAEDVGVYYCGQGTQVPYTFGQGTKLEIKRTVAAPSVFIFPPSDEQLKSGTASVVCLLNNFYPREAKVQWKVDNALQSGNSQESVTEQDSKDSTYSLSSTLTLSKADYEKHKVYACEVTHQGLSSPVTKSFNRGEC
